Laboratory results: patent US20230203142A1, “TREATMENT OF METABOLIC DISORDERS THROUGH THE TARGETING OF A NOVEL CIRCULATING HORMONE COMPLEX” (The President and Fellows of Harvard College, priority 2020, published 2023)

Tests used:
[1] = test system: diet-induced obese (DIO) mice; assay: a-Ab treatment of diet-induced obese mice; assay type: in vivo, mouse
Description: Given the essential role for appropriate beta cell function and insulin secretion in the pathogenesis of diabetes, the pancreata of FABP4 deficient (FABP4^−/−) mice were examined for beta cell mass and insulin content. Animal care and experimental procedures were performed with approval from animal care committees of Harvard University. All mice were housed on a 12-hour light/dark cycle with ad libitum access to chow (PicoLab 5058 LabDiet) and water. FABP4−/− and WT mice were littermates obtained from heterozygous breeding. High fat diet (HFD) fed mice were provided ad libitum access to HFD (60% kcal from fat; Research Diets Inc., D12492i) for 14 weeks beginning at 4 weeks of age. Pancreata and isolated islets were obtained from 7-8-week-old male mice. Blood was collected every other week for 6 hour fasting plasma insulin and FABP4 levels. For acute FABP4 treatment, 10 μg of human recombinant FABP4 (produced in-house) or sterile PBS was injected intraperitoneally. Blood was collected from the tail vein at 0, 10, 20, 30, 60, 120, 240- and 360-minutes post injection for measurement of blood glucose, plasma insulin, and FABP4 levels.
(§1) For the immunohistochemistry, pancreata were dissected and fixed in 10% zinc buffered formalin for 24-48 hrs before being washed and stored in 70% ethanol. Samples were paraffin embedded, and sectioned in steps 250 μm apart. Immunostaining for insulin and glucagon was performed as described previously (Prentice et al., 2014; Rezania et al., 2014). Images of each section were acquired using Aperio Imagescope at 20× magnification. The beta- or alpha-cell area was calculated by using positive pixel count analysis (Aperio ImageScope). Islet number and size was determined by manually circling insulin positive clusters in the Aperio ImageScope software. Two blinded individuals independently performed manual analysis and insulitis scoring.
Antibodies were stored at 4° c. at a stock concentration of 10 mg/ml in PBS. WT diet-induced obese (DIO) male mice were treated twice weekly with 33 mg/kg bodyweight of a-Ab or control antibody (c-Ab) in a final volume of 150 μl, injected subcutaneously for 3 weeks after 12 weeks of high fat breeding, as described (see US20160319003, incorporated herein by reference, and Burak et al., 2015). […] Glucose tolerance test were performed as previously described (Liu, Y. et al. Cell Rep 14, 2889-2900). Briefly, both chow and high fat diet fed mice were evaluated simultaneously. Before intraperitoneal glucose tolerance tests, mice were fasted 16 hr. overnight, before injection of 0.75 g/kg body weight of glucose. Blood glucose was evaluated at 0, 15, 30, 45, 60, 90, and 120-min post-injection.
as §1, with “Pancreata were” for “For the immunohistochemistry, pancreata were”, “for insulin, glucagon, BrdU” for “for insulin”, “and Cleaved Caspase 3” for “and glucagon”

[2] = test system: NOD mice; assay: a-Ab treatment in NOD model of T1D; assay type: in vivo, mouse
Description: WT female NOD mice matched for age, weight, blood glucose, plasma insulin, and circulating FABP4 levels were utilized to explore the effect of antibody-mediated FABP4 targeting in the context of T1D, (FIGS. 2D-G). Mice were treated twice weekly with a-Ab, PBS, or a control antibody of the same isotype (c-Ab) starting at 10 weeks of age, when insulitis had already been established. […] Collectively, a-Ab-mediated protection against T1D and improvement of glycemic control in a DIO model of T2D are both associated with improved beta cell mass and function.
To investigate the contribution of proliferation to the increase in beta cell mass, NOD mice were treated with BrdU along with a-Ab, c-Ab, or PBS for 5 weeks beginning at 10 weeks of age. […] This difference is likely associated with the pro-proliferative environment of DIO as compared to the NOD model. […] Thus, targeting the FABP4-ADK-NDPK complex with a-Ab preserves beta cell mass and enhances beta cell function to protect against diabetes.
as §1, with “Pancreata were” for “For the immunohistochemistry, pancreata were”, “for insulin, glucagon, BrdU” for “for insulin”, “and Cleaved Caspase 3” for “and glucagon”

[3] = molecular target: T1, recombinant ADK (Homo sapiens, UniProt P55263); assay: Recombinant kinase activity assay, ADK (Kinase-Glo); assay type: biochemical
T1 construct: purchased Novus Biologicals or R&D Systems NBP1-44382 or 8024-AK-025
Description: An on-bead kinase assay was developed to measure the activity of endogenous NDPK and ADK pulled down from serum using a-Ab or c-Ab conjugated beads. Both NDPK and ADK are bi-directional kinases that will produce ATP or ADP depending on the substrates provided (FIGS. 4B-C). Kinase activity assays were performed in 384-well plates in reaction buffer (PBS with 0.1% BSA, 0.01% F-127, 5 mM MgCl2). Experiments with recombinant proteins were performed at final concentrations of 40 μg/ml for ADK and FABP4, and 20 ug/ml for NDPK, and a reaction volume of 10 μl. Antibodies were used at a final concentration of 80 ug/ml. Substrates were added in equimolar ratios depending on the kinase being assayed and the direction of the reaction in serial dose responses, with the highest concentration of 5 μM. Proteins and substrates were incubated for 1 hr at room temperature, and ADP and ATP production were monitored using ADP-Glo and Kinase-Glo kits, respectively, according the manufacturer instructions (V6930 and V6711 Promega, USA). Luminescence was quantified using a SpectraMax Paradigm plate reader 30 min after the addition of substrate. Consistent with the MS results, ADK activity, as measured by generation of ATP, was specifically observed in samples pulled down with a-Ab but not c-Ab (FIG. 5A). […] To test this possibility, the ATP and ADP generating activity of recombinant ADK was assessed in the presence of the proposed complex components.

[4] = test system: INS1 cells
Description: (§2) Cells were pre-treated with P2Y1 activator (0.5 nM; MRS2365 Tocris #2157) during the pre-incubation period. Cells were stimulated with ATP (5 μM; Promega #V915A) or ADP (2.5 μM; Promega #V916A) acutely with the addition of LG and HG KRB during the serial stimulation. Cells were treated with 100 ng/ml recombinant human FABP4 (produced in-house), 200 ng/ml recombinant human ADK (Novus Biologicals, product number NBP1-44382 or R&D Systems, product number 8024-AK-025), or 100 ng/ml recombinant human NDPK-A (Acro Biosystems, product number NM1-H5147) where indicated, for the pre-incubation period, as well as during the glucose stimulation.
(§3) Briefly, INS1 cells were plated in imaging disks at 5000 cells/dish and cultured in standard media overnight. Cells were washed with PBS, and incubated in imaging buffer without glucose, with or without calcium containing Fura-2 AM (2 mM; ThermoFisher F1201) for 30 minutes at 37° C. Cells were washed twice with fresh PBS, and placed in lml imaging buffer. Calcium flux was evaluated with the addition of 20 mM glucose, 30 mM KCl, or 1 μM Thapsigargin. Extracellular calcium was added at 1.5 mM. Calcium flux measurements were performed using an epifluorescence system coupled to a Ti-S/L100 inverted microscope L100 with fluorescent light source (X-Cite 120LED System) equipped with Lambda DG-4 Plus for UV ratiometric probes. Excitations at 340 nm and 380 nm were used and an emission of 510 nm. Analysis was performed using ImageJ software. Calcium flux was measured from 50 cells per coverslip.

[5] = test system: INS1 cells; assay: Cytosolic calcium flux, Fura-2 AM imaging; details: 20 mM glucose
Description: as §2, §3

[6] = among the mice that developed diabetes

T1 sequence (P55263 whole entry): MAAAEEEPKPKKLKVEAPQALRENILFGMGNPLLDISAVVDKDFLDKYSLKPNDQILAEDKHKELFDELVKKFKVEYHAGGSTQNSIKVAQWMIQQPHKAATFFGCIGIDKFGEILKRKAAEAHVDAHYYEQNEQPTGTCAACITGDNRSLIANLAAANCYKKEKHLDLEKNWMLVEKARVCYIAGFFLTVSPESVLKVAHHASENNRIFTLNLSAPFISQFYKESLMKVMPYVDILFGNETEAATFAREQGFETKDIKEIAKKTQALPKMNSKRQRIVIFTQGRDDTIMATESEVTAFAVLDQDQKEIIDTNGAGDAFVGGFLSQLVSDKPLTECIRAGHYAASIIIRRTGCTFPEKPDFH

ADK activity to produce ATP ([3]; added to the NDPK-ADK/FABP4 complex, compared to the complex alone): no effect | ADK activity to generate ATP ([3]; recombinant ADK plus the added component): no effect
B1: a-Ab: monoclonal antibody previously reported as CA33; heavy chain SEQ ID NO 446, light chain SEQ ID NO 447; binds FABP4 and NDPK (antibody, listed as Homo sapiens)
heavy: QSVEESGGRLVTPGTPLTLTCTVSGFSLSTYYMSWVRQAPGKGLEWIGIIYPSGSTYCASWAKGRFTISKASTTVDLKITSPTTEDTATYFCARPDNDGTSGYLSGFGLWGQGLVTVSSAKTTPPSVYPLAPGSAAQTNSMVTLGCLVKGYFPEPVTVTWNSGSLSSGVHTFPAVLQSDLYTLSSSVTVPSSTWPSETVTCNVAHPASSTKVDKKIVPRDC
light: DVVMTQTPASVSEPVGGTVTIKCGASEDISRYLVWYQQKPGQPPKRLIYKASTLASGVPSRFKGSGSGTDFTLTISDLECDDAATYYCQCTYGTYAGSFFYSFGGGTEVVVERTDAAPTVSIFPPSSEQLTSGGASVVCFLNNFYPKDINVKWKIDGSERQNGVLNSWTDQDSKDCTYSMSSTLTLTKDEYERHNSYTCEATHKTSTSPIVKSFNRNEC
beta cell proliferation, Ki67 staining ([1]; DIO model, three weeks): small but significant increase | CC3 positive beta cells ([1]; DIO model, vs controls): profound reduction | glycemic excursion during glucose tolerance test (GTT) ([1]; WT DIO mice, 33 mg/kg twice weekly s.c.): improved | 6 hr fasting glucose levels ([1]; WT DIO mice, 33 mg/kg twice weekly s.c., three weeks): reduced | beta cell mass ([1]; pancreata of DIO mice, 3 weeks): trend towards increased | number of islets ([1]; pancreata of DIO mice, 3 weeks): increased | glucagon positive area ([1]; pancreatic sections, DIO mice): significant reduction | overall number of BrdU positive beta cells ([2]; NOD mice, 5 weeks, compared to c-Ab): no significant difference | islet number and beta cell mass ([2]; NOD mice, compared to c-Ab-treated controls): significant increase | CC3 positive beta cells ([2]; NOD model, vs controls): profound reduction | blood glucose [2, 6]: significantly reduced | plasma insulin levels [2, 6]: higher | body weight, plasma insulin, or blood glucose levels ([2]; among the non-diabetic mice, throughout the study): no significant differences | development of T1D ([2]; female NOD mice, twice weekly from 10 weeks of age): significantly protected | GSIS both in vivo and ex vivo ([2]; non-diabetic NOD mice): improved | glycemic control during GTT ([2]; non-diabetic NOD mice): improved | glucagon positive area ([2]; pancreatic sections, NOD mice): significant reduction | ER calcium efflux [4]: rescue | extracellular calcium influx in response to glucose [5]: rescue
